Where a chain is given by its changes, count along the chain named.
T1: Recombinant Human CDH6 Fc His chimera (R&D Systems, Inc.) (human, UniProt P55285 54-615)
T1 construct: Bought product; also called the antigen; human CDH6 antigen
T1 sequence: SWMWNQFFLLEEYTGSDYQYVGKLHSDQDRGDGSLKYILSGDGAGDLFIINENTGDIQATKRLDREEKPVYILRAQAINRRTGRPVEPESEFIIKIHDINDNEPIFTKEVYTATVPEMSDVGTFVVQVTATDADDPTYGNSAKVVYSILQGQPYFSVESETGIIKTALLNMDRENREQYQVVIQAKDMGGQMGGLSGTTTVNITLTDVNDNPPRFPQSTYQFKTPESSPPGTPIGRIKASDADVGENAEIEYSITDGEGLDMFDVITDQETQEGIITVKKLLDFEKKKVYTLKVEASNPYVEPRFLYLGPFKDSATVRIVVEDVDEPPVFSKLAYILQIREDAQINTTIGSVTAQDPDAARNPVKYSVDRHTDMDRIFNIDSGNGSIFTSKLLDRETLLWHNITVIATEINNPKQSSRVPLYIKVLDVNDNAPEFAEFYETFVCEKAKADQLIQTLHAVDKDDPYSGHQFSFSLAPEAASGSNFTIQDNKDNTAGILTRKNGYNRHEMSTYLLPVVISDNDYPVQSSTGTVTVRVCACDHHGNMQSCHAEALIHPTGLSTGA

T2: human CDH6 (full-length, on cells) (human, UniProt P55285 54-790)
T2 construct: also called hCDH6; full-length hCDH6
T2 sequence: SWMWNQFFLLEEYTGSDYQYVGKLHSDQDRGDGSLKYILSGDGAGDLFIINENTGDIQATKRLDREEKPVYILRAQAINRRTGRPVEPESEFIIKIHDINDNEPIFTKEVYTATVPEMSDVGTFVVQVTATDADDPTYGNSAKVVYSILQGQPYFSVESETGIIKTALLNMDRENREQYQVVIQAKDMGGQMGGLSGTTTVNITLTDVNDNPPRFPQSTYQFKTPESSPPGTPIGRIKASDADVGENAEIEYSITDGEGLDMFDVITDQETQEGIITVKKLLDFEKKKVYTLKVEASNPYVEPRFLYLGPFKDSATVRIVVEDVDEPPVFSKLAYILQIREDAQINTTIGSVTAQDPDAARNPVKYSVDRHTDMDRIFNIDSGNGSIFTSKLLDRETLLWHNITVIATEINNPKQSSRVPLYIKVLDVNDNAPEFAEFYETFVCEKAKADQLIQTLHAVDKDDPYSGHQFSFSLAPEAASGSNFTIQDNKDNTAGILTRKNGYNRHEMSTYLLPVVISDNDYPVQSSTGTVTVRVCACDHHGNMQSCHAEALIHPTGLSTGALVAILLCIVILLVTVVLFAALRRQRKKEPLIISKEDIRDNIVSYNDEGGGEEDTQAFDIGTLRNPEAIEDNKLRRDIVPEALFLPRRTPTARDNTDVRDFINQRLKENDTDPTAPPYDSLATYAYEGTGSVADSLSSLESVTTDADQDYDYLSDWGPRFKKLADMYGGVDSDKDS

B1: H02L02 antibody (antibody, human IgG1, kappa, V domains shown)
VH: EVQLVQSGAEVKKPGASVKVSCKASGYTFTRNFMHWVRQAPGQGLEWMGWIYPGDGETEYNQKFQGRVTITADRSTSTAYMELSSLRSEDTAVYFCARGVYGGFAGGYFDFWGQGTLVTVSS
VL: DIQMTQSPSSLSASVGDRVTITCKASQNIYKNLAWYQQKPGKAPKLLIYDANTLQTGVPSRFSGSGSGSDFTLTISSLQPEDFATYFCQQYYSGWAFGQGTKVEIKR
notes: Humanized IgG1/kappa (hH02 + hL02); also called humanized hG019 antibody H02L02
B2: H02L03 antibody (antibody, human IgG1, kappa, V domains shown)
VH: B1 VH
VL: B1 VL with P40L, K42E, A43G, S69T, F87Y
notes: Humanized IgG1/kappa (hH02 + hL03); also called humanized hG019 antibody H02L03
B3: H04L02 antibody (antibody, human IgG1, kappa, V domains shown)
VH: B1 VH with E1Q, V37I, N61A, I70L, F95Y
VL: B1 VL
notes: Humanized IgG1/kappa (hH04 + hL02); also called humanized hG019 antibody H04L02
B4: H01L02 antibody (antibody, human IgG1, kappa, V domains shown)
VH: B1 VH with N61A, R74T, F95Y
VL: B1 VL
notes: Humanized IgG1/kappa (hH01 + hL02); also called humanized hG019 antibody H01L02; labeled H01L02

Target: T1, Recombinant Human CDH6 Fc His chimera …
Assay: SPR (Biacore T200), antigen captured by anti-His antibody, antibody as analyte, steady state affinity model
Description: The dissociation constant between the antibody and the antigen (Recombinant Human CDH6 Fc His chimera, R&D Systems, Inc.) was measured by using Biacore T200 (GE Healthcare Biosciences Corp.), according to a capture method, which comprises capturing the antigen as a ligand with the immobilized anti-His antibody and then measuring the dissociation constant using an antibody as an analyte. Approximately 1000 RU of the anti-histidine antibody (His capture kit, GE Healthcare Biosciences Corp.) was covalently bound to sensor chip CM5 (GE Healthcare Biosciences Corp.) by the amine coupling method. The antibody was also immobilized onto reference cells in the same manner as above. HBS-P+ (10 mM HEPES pH 7.4, 0.15 M NaCl, 0.05% Surfactant P20) supplemented with 1 mM CaCl₂ was used as a running buffer. The antigen was added onto the anti-histidine antibody-immobilized chip for 60 seconds, and a dilution series solution (0.391 to 100 nM) of the antibody was then added at a flow rate of 30 μl/min for 300 seconds. Subsequently, the dissociation phase was monitored for 600 seconds. As a regeneration solution, a glycine solution (pH 1.5) supplemented with 5 M MgCl2 was added twice at a flow rate of 10 μl/min for 30 seconds. A Steady State Affinity model in analysis software (BIAevaluation software, version 4.1) was used in data analysis, and the dissociation constant (KD) was calculated.

| Kd | Binder |
| --- | --- |
| 1.1 nM | B1 |
| 1.4 nM | B2 |
| 1.1 nM | B3 |
| 1.5 nM | B4 |

Target: T2, human CDH6 (full-length, on cells)
Assay: competition flow cytometry on 786-O/hCDH6 cells; competitor: Alexa 488-labeled H01L02 at 5 nM; unlabeled antibody varied [lower panel]
Description: Thereafter, the cells were suspended by the addition of labeled NOV0712 or labeled H01L02 (final concentration: 5 nM) and, further, the addition of each of the 4 humanized hG019 antibodies (clone Nos: H01L02, H02L02, H02L03 and H04L02), which had been prepared in Example 5)-5-3, or the anti-CDH6 antibody NOV0712, which had been prepared in Reference Example 1, or human IgG1 (Calbiochem) as a negative control (final concentration: as shown in the abscissa of FIG. 9). The cells were left standing at 4° C. for 1 hour. Thereafter, the cells were washed twice with PBS supplemented with 5% FBS, followed by detection using a flow cytometer (Canto II; BD Biosciences). The data was analyzed using FlowJo (Tree Star, Inc.). The abscissa depicts the final concentration of the added unlabeled antibody, and the ordinate depicts the amount of the antibody bound based on mean fluorescence intensity. When unlabeled NOV0712 is added to cells supplemented with labeled NOV0712, the amount of the labeled antibody bound is decreased by replacement with the unlabeled antibody in an addition concentration-dependent manner because they compete with each other for binding to the same epitope. […] Likewise, when each of the 4 unlabeled humanized hG019 antibodies is added to cells supplemented with labeled H01L02, the amount of the labeled antibody bound is decreased by replacement with the unlabeled antibody in an addition concentration-dependent manner because they compete with each other for binding to the same epitope.

| IC50 (read off the curve) | Binder |
| --- | --- |
| ~3 nM | B1 |
| ~10 nM | B2 |
| ~10 nM | B3 |
| ~5 nM | B4 |

Source: US20200171163A1 (Daiichi Sankyo, published 2020)
